In US20220025344A1 (Novartis, published 2022):

Experiments:
[1] = molecular target: T1, Recombinant human LPL (mature human lipoprotein lipase, amino acids 28-475) (human, UniProt P06858 28-475); assay: crystal structure of the complex (data not shown)
T1 construct: also called LPL alone; hLPL
T1 sequence: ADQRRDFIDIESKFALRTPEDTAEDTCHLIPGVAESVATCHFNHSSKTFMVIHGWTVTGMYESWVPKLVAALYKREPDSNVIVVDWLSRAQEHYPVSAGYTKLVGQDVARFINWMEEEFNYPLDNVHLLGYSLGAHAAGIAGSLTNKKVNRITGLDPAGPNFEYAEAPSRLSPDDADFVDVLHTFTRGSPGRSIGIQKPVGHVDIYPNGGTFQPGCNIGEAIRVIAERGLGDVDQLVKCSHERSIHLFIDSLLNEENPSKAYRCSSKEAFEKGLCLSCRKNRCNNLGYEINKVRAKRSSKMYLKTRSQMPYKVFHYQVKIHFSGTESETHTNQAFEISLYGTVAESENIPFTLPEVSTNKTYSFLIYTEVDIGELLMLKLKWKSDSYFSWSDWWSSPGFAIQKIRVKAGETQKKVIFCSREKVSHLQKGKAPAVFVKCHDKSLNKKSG

His6-Human LPL(28-475) = molecular target: T2, His6-Human LPL(28-475) (human, UniProt P06858 28-475); assay: Ni-affinity co-purification of untagged GPIHBP1 with N-terminally 6-His tagged LPL (SDS-PAGE), then size exclusion chromatography against MW standards
T2 construct: also called N-terminally 6-His tagged LPL
T2 sequence: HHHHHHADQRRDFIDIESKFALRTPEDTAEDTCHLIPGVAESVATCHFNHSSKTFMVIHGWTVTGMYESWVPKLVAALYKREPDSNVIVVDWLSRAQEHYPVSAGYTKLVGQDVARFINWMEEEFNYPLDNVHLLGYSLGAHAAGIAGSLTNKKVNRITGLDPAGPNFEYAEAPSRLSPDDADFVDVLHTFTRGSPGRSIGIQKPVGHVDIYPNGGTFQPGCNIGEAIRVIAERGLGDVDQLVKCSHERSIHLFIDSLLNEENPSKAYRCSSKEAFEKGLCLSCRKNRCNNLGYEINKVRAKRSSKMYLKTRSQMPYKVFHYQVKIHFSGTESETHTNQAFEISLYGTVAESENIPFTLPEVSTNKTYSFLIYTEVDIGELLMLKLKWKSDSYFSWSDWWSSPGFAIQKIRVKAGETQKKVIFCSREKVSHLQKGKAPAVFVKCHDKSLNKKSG
Source text: Initially an attempt was made to purify LPL protein by itself. In order to aid this purification, a variety of LPL constructs were synthesized that were either untagged or had N- or C-terminal tags. These LPL constructs were expressed in mammalian cells and purified using heparin chromatography or Ni-affinity chromatography. […] Co-expression of the purified soluble form of GPIHBP1 with LPL protected LPL against spontaneous inactivation (data not shown). GPIHBP1 was then co-expressed with LPL in the presence of LMF1 in the following manner: N-terminally 6-His tagged LPL, untagged GPIHBP1, and LMF1 were co-transfected in a ratio of 3:1:1 into HEK293T cells. The expressed protein complex was captured using Ni-affinity chromatography. […] Importantly, the presence of GPIHBP1 and LMF1 generated an LPL/GPIHBP1 complex that was homogenous and eluted as a ˜75 KDa complex during size exclusion chromatography (FIG. 1, panel C). This agreed well with the predicted molecular weight of a 1:1 LPL/GPHBP1 complex.

binding result [1]: binds | binding result (His6-Human LPL(28-475)): binds
B1: Human soluble GPIHBP1 (aa 21-151) (receptor)
chain: QTQQEEEEEDEDHGPDDYDEEDEDEVEEEETNRLPGGRSRVLLRCYTCKSLPRDERCNLTQNCSHGQTCTTLIAHGNTESGLLTTHSTWCTDSCQPITKTVEGTQVTMTCCQSSLCNVPPWQSSRVQDPTG
notes: also called untagged GPIHBP1; solGPIHBP1
